Measurements as given in publication PMC3026963 (The Biochemical journal, 2010).

Biological target: protein kinase CK2 catalytic subunit α (human, UniProt P68400 1-391)
Assay: SEC

Sequence of protein kinase CK2 catalytic subunit α (P68400 whole entry): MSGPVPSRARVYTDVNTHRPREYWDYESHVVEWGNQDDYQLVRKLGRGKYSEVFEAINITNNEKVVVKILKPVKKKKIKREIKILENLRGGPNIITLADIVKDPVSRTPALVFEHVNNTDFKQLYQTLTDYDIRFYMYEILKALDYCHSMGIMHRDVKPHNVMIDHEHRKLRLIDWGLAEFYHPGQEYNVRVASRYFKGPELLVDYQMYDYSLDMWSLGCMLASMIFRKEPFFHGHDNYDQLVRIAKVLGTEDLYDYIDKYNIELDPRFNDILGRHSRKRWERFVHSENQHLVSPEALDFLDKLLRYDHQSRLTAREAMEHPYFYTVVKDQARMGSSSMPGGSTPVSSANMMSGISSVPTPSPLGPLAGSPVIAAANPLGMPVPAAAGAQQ

binding result: binds
B1: protein kinase CK2 non-catalytic subunit β (natural protein)
chain: not shown
